Source: patent publication US20240294895A1, “ENZYMATIC COMPOSITIONS FOR CARBOHYDRATE ANTIGEN CLEAVAGE ON DONOR ORGANS, METHODS AND USES ASSOCIATED THEREWITH” (THE UNIVERSITY OF BRITISH COLUMBIA, priority 2018, published 2024)

What was measured:
[1] = biological target: Flavonifractor plautii GalNAcDeacetylase (FpGalNAcDeAc), SEQ ID NO: 2, 4, 5 (Flavonifractor plautii, UniProt P0DTR4); conditions: 100 μM EDTA; 50 μM A antigen subtype 1penta-MU, pH 7.4, 37° C.
Experimental: FpGalNAcDeacetylase was tested against different potential inhibitors in 96-well plate format as a coupled assay. Reaction was performed in 100 μL scale at 37° C. with 50 μM A antigen subtype 1penta-MU and 5 μg/mL FpGalNAcDeacetylase in 100 mM NaH2PO4 PH 7.4 with 10 μg/mL FpGalactosaminidase, 50 μg/mL SpHex, 50 μg/mL AfcA, 50 μg/mL BgaC. As inhibitors EDTA (1, 10, 100 μM), Marimastat (1, 10, 100, 1000 μM), DMSO (2%, 4%), Protease Inhibitor Cocktail EDTA-free (Pierce™) (1×, 2× and 4×) were tested. The Fluorescence (365/435 nm) was monitored continuously for 1 hours using a Synergy H1™ plate reader (BioTek™).

[2] = biological target: T1, Flavonifractor plautii Galactosaminidase (FpGalNase), full length, SEQ ID NO: 7, 9, 10 (Flavonifractor plautii, UniProt P0DTR5); test: Kinetic parameters of FpGalNase full length (MU or pNP release); format: biochemical; conditions: versus corresponding GalN-antigen
T1 sequence (P0DTR5 with tags, fused parts or gaps): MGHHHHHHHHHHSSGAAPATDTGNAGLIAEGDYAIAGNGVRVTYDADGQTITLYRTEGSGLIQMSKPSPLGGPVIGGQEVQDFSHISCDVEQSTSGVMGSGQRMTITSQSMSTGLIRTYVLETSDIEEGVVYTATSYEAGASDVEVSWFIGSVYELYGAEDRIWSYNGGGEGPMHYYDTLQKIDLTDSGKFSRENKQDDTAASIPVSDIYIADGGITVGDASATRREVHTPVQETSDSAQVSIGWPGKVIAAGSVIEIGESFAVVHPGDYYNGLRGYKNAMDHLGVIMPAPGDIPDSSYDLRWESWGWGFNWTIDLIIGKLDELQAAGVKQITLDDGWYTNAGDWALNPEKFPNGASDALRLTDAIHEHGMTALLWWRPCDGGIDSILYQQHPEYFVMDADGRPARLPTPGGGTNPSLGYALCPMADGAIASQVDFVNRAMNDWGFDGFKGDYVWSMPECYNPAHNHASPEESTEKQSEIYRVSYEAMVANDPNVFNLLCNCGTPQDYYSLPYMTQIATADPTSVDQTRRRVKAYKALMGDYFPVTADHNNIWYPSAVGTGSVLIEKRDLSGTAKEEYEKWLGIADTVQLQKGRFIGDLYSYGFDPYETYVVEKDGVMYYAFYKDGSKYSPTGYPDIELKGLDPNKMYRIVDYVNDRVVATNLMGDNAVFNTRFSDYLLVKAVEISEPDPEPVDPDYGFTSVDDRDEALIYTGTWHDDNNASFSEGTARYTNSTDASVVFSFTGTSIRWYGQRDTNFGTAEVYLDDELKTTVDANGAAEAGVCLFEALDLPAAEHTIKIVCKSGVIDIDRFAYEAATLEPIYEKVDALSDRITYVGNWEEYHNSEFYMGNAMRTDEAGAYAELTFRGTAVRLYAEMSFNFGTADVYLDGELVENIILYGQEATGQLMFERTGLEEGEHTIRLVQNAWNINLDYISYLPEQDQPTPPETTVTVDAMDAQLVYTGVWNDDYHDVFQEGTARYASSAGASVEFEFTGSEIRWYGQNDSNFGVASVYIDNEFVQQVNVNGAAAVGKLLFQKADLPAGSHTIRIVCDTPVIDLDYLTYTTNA
Experimental: (§1) All kinetic assays utilizing 4-methylumbelliferone as leaving group were performed through measurement of fluorescence. To avoid measurement errors based on the inner filter effect (Palmier 2007) standard curves were used to validate the linear range of the fluorophore.
(§2) Michaelis-Menten parameter was determined for GalN antigen subtype 1penta-MU and A antigen subtype 1penta-MU in 100 mM NaH2PO4, pH 7.4 at 37° C. Reaction was performed in 100 μl with 3.4 nM FpGalactosaminidase (5.31 nM FpGalNase_truncA) and 0.1 mg/mL SpHex, AfcA, 0.2 mg/mL BgaC and varying concentrations of substrate (5 μM-2 mM). The reactions were run as a series of four with controls (no FpGalactosaminidase) as duplicates. The fluorescence signal (365/435 nm) resulting from MU release by hydrolysis was monitored by Synergy H1™ plate reader [BioTek™] and converted to concentration using MU standard concentration curves determined under identical reaction conditions. Initial rates (μM/s) were determined and plotted in Grafit 7.0™ to determine the kinetic parameters.
kcat/KM parameter was determined for GalN antigen subtype 1/2/4tetra-MU and B antigen subtype 1tetra-MU at pH 7.4 and 37° C. […] Initial rates (μM/s) were determined and plotted in Grafit 7.0™ to determine the kcat/KM (s^−1*mM^−1) parameters. […]

[3] = substrate: CC(=O)N[C@H]1[C@H](O[C@H]2[C@@H](O)[C@@H](CO)O[C@@H](Oc3ccc4c(C)cc(=O)oc4c3)[C@@H]2O)O[C@H](CO)[C@@H](O)[C@@H]1O[C@@H]1O[C@H](CO)[C@H](O)[C@H](O[C@H]2O[C@H](CO)[C@H](O)[C@H](O)[C@H]2N)[C@H]1O[C@@H]1O[C@@H](C)[C@@H](O)[C@@H](O)[C@@H]1O; test: as above; format: biochemical, Flavonifractor plautii; conditions: other: 100 mM NaH2PO4, pH 7.4, 37° C.
Experimental: as §1, §2
(§3) kcat/KM parameter was determined for GalN antigen subtype 1/2/4tetra-MU and B antigen subtype 1tetra-MU at pH 7.4 and 37° C. Reactions (total volume of 100 μL) were performed in black 96-plate wells and as coupled assays in 100 mM NaH2 PO4 (pH 7.4) with 8.63 nM FpGalactosaminidase, 0.1 mg/mL SpHex, BgaC (BgaA for Subtype 2), AfcA, varying concentrations of substrate (25 μM, 20 μM, 15 μM, 10 μM, 7.5 μM, 5 μM). The reactions were run as a series of four with controls (no FpGalactosaminidase) as duplicates. The fluorescence signal (365/435 nm) resulting from MU release by hydrolysis was monitored by Synergy H1™ plate reader [BioTek™] and converted to concentration using MU standard concentration curves determined under identical reaction conditions. Initial rates (μM/s) were determined and plotted in Grafit 7.0™ to determine the kcat/KM (s^−1*mM^−1) parameters.
(§4) Michaelis-Menten parameters were determined for GalN-α-pNP in clear 96-plate at 37° C. with 863.2 nM FpGalactosaminidase (in 100 mM NaH2PO4, pH 7.4) or 369.9 nM FpGH4 (in 50 mM Tris/HCl, pH 7.4, 100 μM NAD^+, 1 mM MnCl2) with varying concentrations of substrate (10 μM-5 mM) in a volume of 100 μl. The reactions were run as a series of three with two controls (no enzyme). The absorption (at 405 nm) resulting from pNP release by hydrolysis was monitored by Synergy H1™ plate reader [BioTek™] and converted to concentration using p-nitrophenol standard concentration curves determined under identical reaction conditions. Initial rates (μM/s) were determined and plotted in Grafit 7.0™ to determine the kinetic parameters.

[4] = substrate: CC(=O)N[C@H]1[C@H](Oc2ccc3c(C)cc(=O)oc3c2)O[C@H](CO)[C@H](O)[C@@H]1O[C@@H]1O[C@H](CO)[C@H](O)[C@H](O[C@H]2O[C@H](CO)[C@H](O)[C@H](O)[C@H]2N)[C@H]1O[C@@H]1O[C@@H](C)[C@@H](O)[C@@H](O)[C@@H]1O; test: as above; format: biochemical, Flavonifractor plautii; conditions: other: 100 mM NaH2PO4, pH 7.4, 37° C.
Experimental: as §1, §2, §3, §4

[5] = substrate: N[C@H]1[C@@H](Oc2ccc([N+](=O)[O-])cc2)O[C@H](CO)[C@H](O)[C@@H]1O; test: as above; format: biochemical, Flavonifractor plautii; conditions: other: 100 mM NaH2PO4, pH 7.4, 37° C.
Experimental: as §1, §2, §3, §4

[6] = substrate: CC(=O)N[C@H]1[C@H](Oc2ccc3c(C)cc(=O)oc3c2)O[C@H](CO)[C@@H](O[C@@H]2O[C@H](CO)[C@H](O)[C@H](O[C@H]3O[C@H](CO)[C@H](O)[C@H](O)[C@H]3N)[C@H]2O[C@@H]2O[C@@H](C)[C@@H](O)[C@@H](O)[C@@H]2O)[C@@H]1O; test: as above; format: biochemical, Flavonifractor plautii; conditions: other: 100 mM NaH2PO4, pH 7.4, 37° C.
Experimental: as §1, §2, §3, §4

[7] = substrate: CC(=O)N[C@H]1[C@H](Oc2ccc3c(C)cc(=O)oc3c2)O[C@H](CO)[C@@H](O)[C@@H]1O[C@@H]1O[C@H](CO)[C@H](O)[C@H](O[C@H]2O[C@H](CO)[C@H](O)[C@H](O)[C@H]2O)[C@H]1O[C@@H]1O[C@@H](C)[C@@H](O)[C@@H](O)[C@@H]1O; test: as above; format: biochemical, Flavonifractor plautii; conditions: other: 100 mM NaH2PO4, pH 7.4, 37° C.
Experimental: as §1, §2, §3, §4

[8] = substrate: CC(=O)N[C@H]1[C@H](Oc2ccc3c(C)cc(=O)oc3c2)O[C@H](CO)[C@@H](O)[C@@H]1O[C@@H]1O[C@H](CO)[C@H](O)[C@H](O[C@H]2O[C@H](CO)[C@H](O)[C@H](O)[C@H]2N)[C@H]1O[C@@H]1O[C@@H](C)[C@@H](O)[C@@H](O)[C@@H]1O; test: as above; format: biochemical, Flavonifractor plautii; conditions: other: 100 mM NaH2PO4, pH 7.4, 37° C.
Experimental: as §1, §2, §3, §4

Sequence of Flavonifractor plautii GalNAcDeacetylase (FpGalNAcDeAc), SEQ ID NO: 2, 4, 5 (P0DTR4 13-772, looked up, natural form): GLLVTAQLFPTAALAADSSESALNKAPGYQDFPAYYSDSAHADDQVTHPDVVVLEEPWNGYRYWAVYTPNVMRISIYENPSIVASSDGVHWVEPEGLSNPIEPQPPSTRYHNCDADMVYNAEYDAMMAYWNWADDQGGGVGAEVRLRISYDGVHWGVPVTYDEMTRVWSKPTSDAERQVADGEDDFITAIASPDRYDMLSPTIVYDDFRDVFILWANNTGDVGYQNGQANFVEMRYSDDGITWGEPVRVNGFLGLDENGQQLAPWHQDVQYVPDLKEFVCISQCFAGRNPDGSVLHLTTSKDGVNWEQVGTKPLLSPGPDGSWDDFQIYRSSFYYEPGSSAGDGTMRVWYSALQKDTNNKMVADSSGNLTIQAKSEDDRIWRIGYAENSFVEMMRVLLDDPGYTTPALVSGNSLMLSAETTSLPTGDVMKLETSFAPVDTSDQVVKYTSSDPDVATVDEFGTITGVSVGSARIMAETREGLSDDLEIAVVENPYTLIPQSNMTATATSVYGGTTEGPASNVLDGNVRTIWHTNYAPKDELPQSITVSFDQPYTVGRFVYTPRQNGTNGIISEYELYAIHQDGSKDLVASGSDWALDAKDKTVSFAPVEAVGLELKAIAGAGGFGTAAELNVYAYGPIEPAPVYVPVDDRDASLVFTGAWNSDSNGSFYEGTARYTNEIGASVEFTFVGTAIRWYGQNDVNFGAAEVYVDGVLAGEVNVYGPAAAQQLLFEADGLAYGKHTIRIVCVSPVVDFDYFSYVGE

## O=C(O)CN(CCN(CC(=O)O)CC(=O)O)CC(=O)O [EDTA]
[1]
  effect of treatment on enzyme activity: largely obliterated the enzyme activity

## CC(=O)N[C@H]1[C@H](Oc2ccc3c(C)cc(=O)oc3c2)O[C@H](CO)[C@@H](O)[C@@H]1O[C@@H]1O[C@H](CO)[C@H](O)[C@H](O[C@H]2O[C@H](CO)[C@H](O)[C@H](O)[C@H]2O)[C@H]1O[C@@H]1O[C@@H](C)[C@@H](O)[C@@H](O)[C@@H]1O [B antigen Type1tetra-MU]
[2]
  kcat/KM for cleavage of B-antigen, times lower than for the corresponding GalN-antigen: over 2000 times lower

B1: Flavonifractor plautii Galactosaminidase (FpGalNase), full length, SEQ ID NO: 7, 9, 10 (Flavonifractor plautii) (protein)
chain: MGHHHHHHHHHHSSGAAPATDTGNAGLIAEGDYAIAGNGVRVTYDADGQTITLYRTEGSGLIQMSKPSPLGGPVIGGQEVQDFSHISCDVEQSTSGVMGSGQRMTITSQSMSTGLIRTYVLETSDIEEGVVYTATSYEAGASDVEVSWFIGSVYELYGAEDRIWSYNGGGEGPMHYYDTLQKIDLTDSGKFSRENKQDDTAASIPVSDIYIADGGITVGDASATRREVHTPVQETSDSAQVSIGWPGKVIAAGSVIEIGESFAVVHPGDYYNGLRGYKNAMDHLGVIMPAPGDIPDSSYDLRWESWGWGFNWTIDLIIGKLDELQAAGVKQITLDDGWYTNAGDWALNPEKFPNGASDALRLTDAIHEHGMTALLWWRPCDGGIDSILYQQHPEYFVMDADGRPARLPTPGGGTNPSLGYALCPMADGAIASQVDFVNRAMNDWGFDGFKGDYVWSMPECYNPAHNHASPEESTEKQSEIYRVSYEAMVANDPNVFNLLCNCGTPQDYYSLPYMTQIATADPTSVDQTRRRVKAYKALMGDYFPVTADHNNIWYPSAVGTGSVLIEKRDLSGTAKEEYEKWLGIADTVQLQKGRFIGDLYSYGFDPYETYVVEKDGVMYYAFYKDGSKYSPTGYPDIELKGLDPNKMYRIVDYVNDRVVATNLMGDNAVFNTRFSDYLLVKAVEISEPDPEPVDPDYGFTSVDDRDEALIYTGTWHDDNNASFSEGTARYTNSTDASVVFSFTGTSIRWYGQRDTNFGTAEVYLDDELKTTVDANGAAEAGVCLFEALDLPAAEHTIKIVCKSGVIDIDRFAYEAATLEPIYEKVDALSDRITYVGNWEEYHNSEFYMGNAMRTDEAGAYAELTFRGTAVRLYAEMSFNFGTADVYLDGELVENIILYGQEATGQLMFERTGLEEGEHTIRLVQNAWNINLDYISYLPEQDQPTPPETTVTVDAMDAQLVYTGVWNDDYHDVFQEGTARYASSAGASVEFEFTGSEIRWYGQNDSNFGVASVYIDNEFVQQVNVNGAAAVGKLLFQKADLPAGSHTIRIVCDTPVIDLDYLTYTTNA
[3]
  Km: 64.5 ± 7.6 µM
  kcat: 2.35 s⁻¹
  kcat/Km: 36480 M⁻¹ s⁻¹
[4]
  kcat/Km: 30050 ± 2330 M⁻¹ s⁻¹
[5]
  Km: 700 ± 151 µM
  kcat: 0.029 s⁻¹
  kcat/Km: 40 M⁻¹ s⁻¹
[6]
  kcat/Km: 47270 ± 7490 M⁻¹ s⁻¹
[7]
  kcat/Km: 20 M⁻¹ s⁻¹
[8]
  kcat/Km: 45700 ± 3570 M⁻¹ s⁻¹
